Experimental data as given in patent US20240029824A1 (University of Washington, published 2024).
Blank lines part the entries; values can stand above or below the binder they belong to.

How the values were obtained:
[1] = target: T1, DHT03_3arm_A21/B21/C82 chain C; assay: three components purified separately, mixed equimolar, heat annealed, SEC, negative stain EM
T1 construct: also called chain C DHR82 fusion; chain C of C3-DHT03-01-DHR82 and C4-DHT03-01-DHR82
T1 chain: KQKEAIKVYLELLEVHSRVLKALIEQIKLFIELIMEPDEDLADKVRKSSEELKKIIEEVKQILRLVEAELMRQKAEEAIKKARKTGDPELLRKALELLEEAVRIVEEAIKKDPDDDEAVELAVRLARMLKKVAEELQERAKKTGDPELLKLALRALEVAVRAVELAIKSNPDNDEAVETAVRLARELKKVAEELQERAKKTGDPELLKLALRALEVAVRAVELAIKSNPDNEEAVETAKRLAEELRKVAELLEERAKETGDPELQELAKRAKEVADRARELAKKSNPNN
Excerpt: As is evident from the images in FIGS. 4c and 4d, the cyclic structures retain one of the original heterotrimer helical hairpins in each corner; these short, outward facing protein chains provide fusion points for further elaboration of higher order symmetric assemblies. To evaluate the potential for building up larger nanostructures using the rings as hubs, and explore the modularity of the designed building blocks, we replaced the original outward facing chain C helical hairpin with the chain C DHR82 fusion (as it was the largest 4-repeat DHR) from FIG. 3d, row 8. This was done for two designs (C3-DHT03-01 and C4-DHT03-01), with chain C replaced by fusion C82 through expressing and purifying the three components separately, mixing them in equal molar quantities, and reconstituting using heat annealing.
An AKTA PURE FPLC system was used. Heterotrimer bases, arm extensions, coiled coil C2 rings, and all constructs mentioned in SI were passed through a Cytvia Superdex S200 Increase 10/300 GL column, while C3/C4 rings made from DHT03 were passed through a Cytvia Superdex S6 Increase 10/300 GL column. The mobile phase was TBS (25 mM Tris-HCl pH 8.0, 100 mM NaCl or 25 mM Tris-HCl pH 8.0, 150 mM NaCl). Samples ran at a flow rate of 0.75 ml/min and fractions were collected at 0.5 ml.

[2] = target: T2, DHT03 chain C (SEQ ID NO: 59); assay: chains mixed and annealed, SEC, negative stain EM; A3B3C3 ring
T2 chain: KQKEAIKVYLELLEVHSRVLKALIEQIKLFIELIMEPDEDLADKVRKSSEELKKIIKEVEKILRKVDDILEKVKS

[3] = target: T2, DHT03 chain C (SEQ ID NO: 59); assay: X-ray crystal structure, 3.35 A
Method: Purified DHT03_2arm_A21/B21/C (long) protein at a concentration of 41 mg/mL was used to conduct sitting drop, vapor-diffusion crystallization trials using the JCSG Core I-IV screens (NeXtal Biotechnologies). Crystals of DHT03_2arm_A21/B21/C long grew from drops consisting of 100 nL protein plus 100 nL of a reservoir solution consisting of 2M (NH4)2SO4, 0.1M sodium acetate pH4.6 at 18° C., and were cryoprotected by supplementing the reservoir solution with 2.2M sodium malonate pH5. Native diffraction data was collected at APS beamline APS-23-ID-B, indexed to P1 and reduced using XDS⁴⁸. The structure was phased by molecular replacement using Phaser™. The chain A of a set of ˜49 lowest energy predicted models from Rosetta™ were used as search models. Several of these models gave clear solutions. Chain B and Chain C were fitted manually in Coot™ and rigid body refinement by Phenix™. The following model building and refinement were done by Coot™ and Phenix™.

[4] = target: T2, DHT03 chain C (SEQ ID NO: 59); assay: chains mixed and annealed, SEC, negative stain EM; A4B4C4 ring
DHT01-4arm-01 chain C [5] = target: T3, DHT01-4arm-01 chain C; assay: bicistronic expression, SAXS, negative stain EM; A2B2 ring
T3 construct: also called DHT01-4arm-02 chain C; C2-DHT01-01 chain B
T3 chain: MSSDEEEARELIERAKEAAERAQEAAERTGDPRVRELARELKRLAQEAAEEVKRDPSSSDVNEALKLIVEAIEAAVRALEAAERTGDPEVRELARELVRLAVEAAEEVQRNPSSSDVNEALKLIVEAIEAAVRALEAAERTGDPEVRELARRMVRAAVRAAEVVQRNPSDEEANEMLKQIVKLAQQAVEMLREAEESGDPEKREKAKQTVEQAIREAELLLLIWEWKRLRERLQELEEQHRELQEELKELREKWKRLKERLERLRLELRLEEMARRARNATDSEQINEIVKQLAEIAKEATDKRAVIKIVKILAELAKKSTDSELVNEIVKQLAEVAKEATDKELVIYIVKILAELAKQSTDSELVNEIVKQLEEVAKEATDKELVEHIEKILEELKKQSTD

[6] = target: T4, DHT05_3arm_A62/B71/C62 chain C; assay: SEC and SAXS; chains of one ABC heterotrimer
T4 chain: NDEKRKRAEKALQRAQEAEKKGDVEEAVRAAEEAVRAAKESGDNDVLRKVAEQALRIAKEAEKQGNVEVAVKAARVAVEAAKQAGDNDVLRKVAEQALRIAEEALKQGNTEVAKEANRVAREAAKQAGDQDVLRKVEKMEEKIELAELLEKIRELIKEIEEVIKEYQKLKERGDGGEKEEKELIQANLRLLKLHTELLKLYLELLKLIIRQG

DHT01-4arm-01 chain C [7] = target: T3, DHT01-4arm-01 chain C; assay: co-expression, pull-downs, SEC, native MS, SAXS; chains of one ABC heterotrimer

B1: C3-DHT03-01 chain B (designed binder)
chain: NTHFIVVHGGEEARQLAETAVREISKKEGTEVRFEKKDGLLSIEVKNLSEELQRLIQELLQLLVRLAALLEAVRAVEEAIKRNPDNDEAVETAVRLARELKKVAELLQELAKKAGVPAILRGALLALEVAVRAVELAIKSNPDNDEAVETAVRLAVVKLALEIVQQLPDTELAREALELAKEAVKSTDSEALKVVYLALRIVQQLPDTELARLALELAKKAVEMTAQEVLEIARAALKAAQAFPNTELAELMLRLAEVAARVMKELERNDEEIKKSDELDDESLLEDIVELLKEIIKLWKILVEVSDVMLKLIS
notes: three copies in the A3B3C3 ring; also called C3-DHT03-01-DHR82 chain B
- binding result [1]: binds
- binding result [2]: binds

B2: DHT03_2arm_A21/B21/C long chain B (designed binder)
chain: SEKEKVEELAQRIREQLPDTELAREAQELADEARKSDDSEALKVVYLALRIVQQLPDTELAREALELAKEAVKSTDSEALKVVELALKIVQQLPDTELAKEALELAKEAVKSTDSEALKVVELALEIVQQLPDTELAKEALKLAKEAVKSTDSEALKVVYLALRIVQQLPDTELAREALELAKEAVKSTDSEQLEVVRLALEIVQLAPDTRLARAALKLAKEAVKSTDQEELKKVKAILRVASEVLKLEEEAKKSQEEVERLKQEVEKASKAGLDHEGDSRIFKKIHDVVTKQIKVILRLIAVYAELVAIIG
- binding result [3]: binds

B4: C2-DHT01-02 chain B (designed binder)
chain: DEEEKLRESLEEQKKRVKEIEREHEEIREALKRLQQSVLRQAVRLAKLGDDSEMIQRIVEDLARQAMEATDDREVEKIEKALDELAKNSTDEELKKVIKVAKTLVRVAKLVKEAEELLRQAKEKGSEEDLEKALRTAEEAAREAKKVLEEAEKAQIAEAALLAVELVVRVAELLLRIAKESGSEEALERALRVAEEAARLAKRVLELAEKQGDPEVALRAVELVVRVAELLLRIAKESGSSEALTRAWRVAIEAFQLAVRVLKLAQKQNDSEVARRATELMKRVAELMERIARESGSSAFKAAAEALEAAARTNDKEVVDLARELARLAIEALEEVERNSKSSDVNRALKLILRAIKAAVQLLEHAEKSGDPEVRELARELVRRLVEAAEEVQRNPSDEQKNTQLRRLIAKAEVWLLNEEFKEAEKRFRKLQEETKKALEEVEELNQRFEEALEEVERIKRRQK
notes: two copies in the A2B2 ring
- binding result (DHT01-4arm-01 chain C [5]): binds

B5: C3-DHT03-02 chain B (designed binder)
chain: TWQWVLINISEEARQLIEKAVRAISKKEGTEVHFEKDDGVLHIRVKNLHEKRAREIHKVAKLILEVAAAERIVRERPGSNLAKKALEIILRAAEELAKADVDAALEAAVRAAEKVVREQPGSNLAKKALEIILRAAEELAKLPDPEALKEAVKAAEKVVREQPNSELAKKAREIIKRAAEELAKSPDKEAIQEAATALAILIELILSNTELAREAKELATEARKATDSEAAKVVFLALFIVVQLPDTELAKEALELAKEAVKSTDSEALKVVELALEIVQQLPDTELAKEALKLAKEAVKSTDSEALKVVYLALRIVQQLPDTELAREALELAKEAVKSTDSEQLEVVRLALEIVQLAPDTRLARAALKLAKEAVKSTDQEELKKVKAILRVASEVLKLEEEAKKSQEEVERLKQEVEKASKAGLDHEGDSRIFKKIHDVVTKQIKVILRLIAVYAELVAIIG
notes: three copies in the A3B3C3 ring
- binding result [2]: binds

B6: C2-DHT01-01 chain A (designed binder)
chain: DEEEKLRESLEEQKKRVKEIEREHEEIREALKRLQQSVLRQAVRLAKLGDDSEMIRRIVKDLMQQAIEATDEREVEKIKKAAEELSKNSTDEDLKKQIKAVQELVKAVETVREAKKQGDPKKVLKAAEIAMEVATWAAERNDEMIFKLAAKMAKEVAERLKEVAKKENDSALELAAEAIKAAVEALEAALRTGDPRVRELAKELVRLAKEAAEEATRDSKDSDKNEALKLIVEAIKAAVRALEAAERTGDPEVRELARELVRLAVEAAEEVLRNPSSSDVNRALKLIVRAIEAAVQLLEHAEKSGDPEVRELARELVRRLVEAAEEVQRNPSDEQKNTQLRRLIAKAEVWLLNEEFKEAEKRFRKLQEETKKALEEVEELNQRFEEALEEVERIKRRQK
notes: two copies in the A2B2 ring; ring designs kept a C-terminal His-tag in frame
- binding result (DHT01-4arm-01 chain C [5]): binds

B8: C2-DHT01-03 chain A (designed binder)
chain: MGDEEEKLRESLEEQKKRVKEIEREHEEIREALKRLQQSVLRQAVRLAKLGDDSRMIASIIRDLVKQALRATDEREQKKIKKALEELAQNATDEALKLLIEAAKSLLRAAEASERGDEEEFRKAAEKALELAKRLVEIAKKQSLPEFVLAAAEIALAVAELAAKNNDSEVLEKALRSAAEVAQRLLEVAEKENNQELVEEAAKILKRALEIVEKAAKKLKERNDQSSDVNRALTLIRRAQEAADQLLEHARKSGDPEVWELAIRLVARLVEAAAKVAANMSDEQQNTQLRRLIAKAEVWLLNEEFKEAEKRFRKLQEETKKALEEVEELNQRFEEALEEVERIKRRQKGGSGWSHPQFEK
notes: two copies in the A2B2 ring
- binding result (DHT01-4arm-01 chain C [5]): binds

B9: DHT05_3arm_A62/B71/C62 chain B (designed binder)
chain: SEVEKRLLEIHRQVAESHRILVEVHEALIEALRGNSEEAKEKLKELVKKLEKIIRQEELLLQLLEALVKALQAKKEGDPELVLEAAKDALRVAEQAAKEGDKEMFKQAAELALWLAKQLVEVASKEGDPELVLEAAKVALRVAELAAKNGDKEVFKKAAESALEVAKRLVEVASKEGDPELVEEAAKVAEEVRKLAKKQGDEEVYEKARETAREVKEELKRVREEK
- binding result [6]: binds

The next lines start with the values.

- binding result [4]: binds
B3: C4-DHT03-02 chain B (designed binder)
chain: MGTTNFHLINGSEEARQIIEKIVEEVARKAGTEVHFEKSDGTLEIRVKNLHEELERRIKKAIEAALAAQIAKKLAEQIERQLSNTELAKEAKKLATEAEKARDSEAVQVVLLALEIVQQLPDTELAKEALELAEEAVKSTDSEALKVVKLALEIVQQLPDTELAREALELAKEAVKSTDSEALKVVYLALRIVQQLPDTELARLALELAKKAVEMTAQEVLEIARAALKAAQAFPNTELAELMLRLAEVAARVMKELERNDEEIKKSDELDDESLLEDIVELLKEIIKLWKILVEVSDVMLKLIS
notes: four copies in the A4B4C4 ring

- binding result [1]: binds
- binding result [4]: binds
B7: C4-DHT03-01 chain B (designed binder)
chain: MGTTNFHLINGSEEARQLIQKAVEAISKKEGTEVHFEKSDGTLEIRVKNLHPRQEDLIKKFIEALLLALVAKGELEQAEKEGDAEVALRAVEKVVRVAELLLRLAKEAGSEEALKAALEIAEQAARLAARVFTLAVKQNDSDVAKRAVELIKRVAELLKRIAKESGSEEAKERAEKVEKAAEVAEIAARILDQLSNTELAKEALKLASEALKSDIKEALEVVRLALRIVQQLPDTELAREALELAKEAVKSTDSEQLEVVRLALEIVQLAPDTRLARAALKLAKEAVKSTDQEELKKVKAILRVASEVLKLEEEAKKSQEEVERLKQEVEKASKAGLDHEGDSRIFKKIHDVVTKQIKVILRLIAVYAELVAIIG
notes: four copies in the A4B4C4 ring; also called C4-DHT03-01-DHR82 chain B

- binding result (DHT01-4arm-01 chain C [7]): binds
B10: DHT01-4arm-01 chain B (designed binder)
chain: SEQERREKAKEEVRELNEEFKEAEKRFRKLQEETKKALEEVEELNQRFQEALTEVAAKKLALEISRVIKTLKESGSSYEEIAEIVARIVAEIVEALKRSGASEKDIATIVAAIISAVIQTLKESGSSYEVIAEIVARIVAEIVEALKRSGTSEDEIAEIVARVISEVIRTLKESGSSYEVIKEIVQRIVEEIVEALKRSGTSEDEINEIVRRVKSEVERTLKESGSS
notes: Strep-tag II was added to the N-terminus of chain B of DHT01 arms
